Assay results taken from publication PMC6121587, “In Vitro Inhibitory Mechanism Effect of TRAIP on the Function of TRAF2 Revealed by Characterization of Interaction Domains” (International Journal of Molecular Sciences, 2018).
Values joined by “and” are separate entries in the source; they are usually repeats but may differ in a detail not shown here. Equal values may be shown once. Each block holds one molecule with its values, some of them ahead of it.

B1: TRAF1 TRAF-N coiled-coil domain (amino acids 181-244) (domain or fragment, UniProt Q13077 181-244, looked up)
chain: FMKEKLLAELEGKLRVFENIVAVLNKEVEASHLALATSIHQSQLDRERILSLEQRVVELQQTLA
notes: TNF receptor-associated factor 1 (TRAF1), TRAF-N coiled-coil domain, amino acids 181-244; also called TRAF1 TRAF-N CC
B2: TRAIP coiled-coil domain (TRAIP CC, residues 72-167) (domain or fragment, human, UniProt Q9BWF2 72-167, looked up)
chain: NVLDAEFLKNELDNVRAQLSQKDKEKRDSQVIIDTLRDTLEERNATVVSLQQALGKAEMLCSTLKKQMKYLEQQQDETKQAQEEARRLRSKMKTME
notes: Trimer by SEC and MALS at high concentration, dimer by AUC at low concentration; calculated monomer mass with the tag 12,425 Da; not shown: His6, C-terminal, kept
B3: TRAIP RING domain plus coiled-coil domain (TRAIP RING-CC, residues 1-157) (domain or fragment, human, UniProt Q9BWF2 1-157, looked up)
chain: MPIRALCTICSDFFDHSRDVAAIHCGHTFHLQCLIQWFETAPSRTCPQCRIQVGKRTIINKLFFDLAQEEENVLDAEFLKNELDNVRAQLSQKDKEKRDSQVIIDTLRDTLEERNATVVSLQQALGKAEMLCSTLKKQMKYLEQQQDETKQAQEEAR
notes: Exists in different forms and higher-order oligomers; calculated monomer mass with the tag 18,893 Da; not shown: His6, C-terminal, kept
B4: TRAF2 TRAF-N coiled-coil domain (amino acids 264-329) (domain or fragment, human, UniProt Q12933 264-329, looked up)
chain: AGSELLQRCESLEKKTATFENIVCVLNREVERVAMTAEACSRQHRLDQDKIEALSSKVQQLERSIG
notes: TNF receptor-associated factor 2 (TRAF2), human, TRAF-N coiled-coil domain, amino acids 264-329; Trimer by SEC; dimer and possible trimer by AUC. 'Human' is said of the TRAF2 TRAF domain in the same methods paragraph, not of this construct itself; also called TRAF2 TRAF-N CC; TRAF2 CC

Assays:
[1] = target: TRAF2 TRAF domain (TRAF-N and TRAF-C) (human); assay: SEC; single purified protein on Superdex 200 10/30, 20 mM Tris-HCl pH 8.0, 150 mM NaCl
[2] = target: TRAF4 TRAF domain (TRAF-N and TRAF-C) (human); assay: as above
[3] = target: the molecule itself; assay: as above
[4] = target: the molecule itself; assay: SEC + SEC-MALS; TRAIP CC alone, high concentration; Superdex 200 10/30; MALS on mini-DAWN treos
[5] = target: the molecule itself; assay: AUC; sedimentation velocity, 20 °C, 2 mg/mL, 20 mM Tris-HCl pH 8.0, 150 mM NaCl, 45,000 rpm, 280 nm, SEDFIT c(s); the paper calls the TRAIP CC concentration low
[6] = target: B3; assay: native gel or EMSA; Native PAGE shift assay of mixtures of two purified proteins, Phast System, 8-25% gradient gel, Coomassie; conditions: both partners purified

stoichiometry N [1]: 3
Molecule: TRAF2 TRAF domain (TRAF-N and TRAF-C) (domain or fragment)

stoichiometry N [2]: 3
Molecule: TRAF4 TRAF domain (TRAF-N and TRAF-C) (domain or fragment)

Molecule: B1
stoichiometry N [3]: 3

Molecule: B2
stoichiometry N [4]: 3
stoichiometry N [5]: 2

Molecule: B3
binding result [3]: binds

Molecule: B4
binding result [6]: binds
stoichiometry N [5]: 2 and 3
